In the supplement of paper PMC10567573 one finds protein stability index data, which are given here for 36 sequences.

± gives the standard deviation.

This data set is described as follows: protein stability index of a GFP-peptide fusion (GPS, HEK-293T) (PSI 1-6); higher = more stable. The settings on record: c terminus: a fixed tail appended.
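Note: 24-mer peptide tiles fused after GFP, lentivirally expressed, FACS-sorted into six equal bins by GFP/DsRed ratio, decoded by Illumina sequencing, PSI is the read-weighted mean bin number.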

Take CFVLFSLTHTHTHTPNHRGINCFF [ANKRD44]: the protein stability index (treatment: DMSO) is 2.66 ± 0.032 and the protein stability index (treatment: MLN4924 1 uM, 8 h) came out at 2.82 ± 0.5.
The matching figures for KSMGLKKKAFVWARNIGFKVNSKK [ACSBG2]: 2.91 ± 0.3 and 2.83 ± 0.37.
The matching figures for AKVTGEVLDILTRLPESVERLTGV [FLOT1]: 2.98 ± 0.37 and 3.17 ± 0.34.
Take VVGNWQYFFPVIFSKASSSLQLVF [MAGEA3]: the protein stability index is, setting by setting: (treatment: DMSO) 3.28 ± 0.46; (treatment: MLN4924 1 uM, 8 h) 3.11 ± 0.55.
The matching figures for FFPWREAKPGSTEKGLPLRKTHVL [MFSD9]: 2.72 ± 0.28 and 2.82 ± 0.076.
Turning to LNEMRDQYEKMAEKNRKDAEDWFF [KRT17], the protein stability index reads like this: (treatment: DMSO) 4.14 ± 0.2; (treatment: MLN4924 1 uM, 8 h) 4.1 ± 0.19.
The matching figures for SSREDSLEAGLPLQVRGYPEEKKE [CHGA]: 5.49 ± 0.21 and 5.5 ± 0.3.
For EGAIAVHCKAGLGRTGTLIACYVM [CDC14A], the protein stability index is, setting by setting: (treatment: DMSO) 3.02 ± 0.56; (treatment: MLN4924 1 uM, 8 h) 2.86 ± 0.51.
For the sequence ALKKSADWVSDWSSRPENIPPKEF [BNIP3L], the protein stability index came out at 3.55 ± 0.23 (treatment: DMSO) and 3.77 ± 0.18 (treatment: MLN4924 1 uM, 8 h).
Regarding ALNWTDIPVAMEHQPPYIIAVLPR [VPS39], the protein stability index reads like this: (treatment: DMSO) 2.23 ± 0.38; (treatment: MLN4924 1 uM, 8 h) 2.25 ± 0.29.
Regarding CTEGPIDLVFVIDGSKSLGEENFE [MATN2], the protein stability index reads like this: (treatment: DMSO) 2.72 ± 0.29; (treatment: MLN4924 1 uM, 8 h) 2.52 ± 0.59.
QEKDQEMERLRELQRASILDMRRD [FBF1]: the protein stability index reads like this: (treatment: DMSO) 4.86 ± 0.22; (treatment: MLN4924 1 uM, 8 h) 4.79 ± 0.24.
The matching figures for RQEAIYEMSRGEQDLIEDLKLARK [NET1]: 4.69 ± 0.18 and 4.79 ± 0.099.
The corresponding values for EAFQIVLSHLLGDAGSPYLIGLIS [SPNS1] are 3.11 ± 0.37 and 2.98 ± 0.41.
On to FRLLNLKNDSLRKRYDGLKYDVKK [TSN], for which the protein stability index is, setting by setting: (treatment: DMSO) 2.85 ± 0.21; (treatment: MLN4924 1 uM, 8 h) 2.94 ± 0.32.
The corresponding values for VYNAARDGKLQLLQKLLSGRSREE [FEM1A] are 2.77 ± 0.15 and 2.79 ± 0.27.
With FSGDGEYIVAGSARQHALYIWEKS [RBBP5], the protein stability index was 2.59 ± 0.32 (treatment: DMSO) and 2.57 ± 0.32 (treatment: MLN4924 1 uM, 8 h).
The corresponding values for GYLIKILTNSNLPEEELDFFEILR [CNOT7] are 2.15 ± 0.25 and 2.23 ± 0.3.
The matching figures for DVIQALDLSVPLMDVGETAMVTAD [FKBP8]: 3.41 ± 0.29 and 3.53 ± 0.19.
The matching figures for WGFRLVGGRDFSAPLTISRVHAGS [PDLIM4]: 2.02 ± 0.24 and 2.17 ± 0.32.
With LEKGSFVGNISKDLGLAPRELAER [PCDHGA10], the protein stability index runs as follows: (treatment: DMSO) 4.43 ± 0.35; (treatment: MLN4924 1 uM, 8 h) 4.54 ± 0.33.
The matching figures for SIYPMEVLKTRMALRKTGQYSGML [SLC25A25]: 2.48 ± 0.36 and 2.6 ± 0.52.
The corresponding values for SAVVGDVLVLTKPLGTQVAVNAHQ [SEPHS2] are 2.95 ± 0.3 and 3.1 ± 0.31.
Consider YVALQTKGALQKKPLYVAFSFMYI [KCNK9], for which the protein stability index came to 3.44 ± 0.89 (treatment: DMSO) and 2.85 ± 0.8 (treatment: MLN4924 1 uM, 8 h).
Turning to MEQPTSSTNGEKTKSPCESNNKKN [SPANXN3], the protein stability index runs as follows: (treatment: DMSO) 5.32 ± 0.33; (treatment: MLN4924 1 uM, 8 h) 4.92 ± 0.85.
Take GGGFGGGSCQLGGGRGVSTCSTRF [KRT13]: the protein stability index is 3.5 ± 0.17 (treatment: DMSO) and 3.59 ± 0.21 (treatment: MLN4924 1 uM, 8 h).
The matching figures for VLRTWRTNLPKGACALLLTSVDHD [DLC1]: 2.26 ± 0.66 and 2.44 ± 0.39.
The corresponding values for LVHVMERSLSPSLSSVDMRMTSSP [RAD54B] are 2.51 ± 0.34 and 2.58 ± 0.36.
The matching figures for TKWVDYSNKYGFGYQLSDHTVGVL [PLK2]: 2.19 ± 0.33 and 2.08 ± 0.19.
On to LQLEACGMRRKSLLTRKVICKSDA [GOLPH3], for which the protein stability index (treatment: DMSO) amounted to 2.95 ± 0.58 and the protein stability index (treatment: MLN4924 1 uM, 8 h) was 3.07 ± 0.43.
On to RYVLKAGQTVTIWAANAGVTASPP [LMNB1], for which the protein stability index is, setting by setting: (treatment: DMSO) 3.62 ± 0.27; (treatment: MLN4924 1 uM, 8 h) 3.49 ± 0.24.
MNGDSRAAVVTSPPPTTAPHKERY [ADD1]: the protein stability index is 4.89 ± 0.26 (treatment: DMSO) and 5.07 ± 0.22 (treatment: MLN4924 1 uM, 8 h).
As to NLKWLDLKDNPLDPVLAKVAGDCL [LRRC59], the protein stability index reads like this: (treatment: DMSO) 3.21 ± 0.26; (treatment: MLN4924 1 uM, 8 h) 3.08 ± 0.19.
The corresponding values for SDPQTVAGAFGYFQQDTKGLVDFR [LPCAT4] are 3.68 ± 0.41 and 3.71 ± 0.29.
Consider AARAVRANDINYQDQIPRTLEEFV [FEM1B], for which the protein stability index was found to be 3.96 ± 0.21 (treatment: DMSO) and 3.77 ± 0.32 (treatment: MLN4924 1 uM, 8 h).
The matching figures for CQVFPERLAQGNPQQGFFSSFFTC [ATP23]: 2.07 ± 0.29 and 2.14 ± 0.33.
